The values below come from patent US20220380801A1 (AstraZeneca / MedImmune, published 2022).

For assay [1], the target named is T1, HCV NS3/4A PR (S139A):simeprevir complex (Hepatitis C virus subtype 1a). In words: phage ELISA. For orientation: An ELISA detects its analyte on a solid surface through an enzyme-linked reagent.
Assay [2] has as its target T1, HCV NS3/4A PR (S139A):simeprevir complex. In words: HTRF, with simeprevir. On the technique in general: Time-resolved FRET reads energy transfer from a long-lived donor to a nearby acceptor.
The target in assay [3] is T2, BSA, in the presence of simeprevir (UniProt P02769 25-607).
T2 construct: also called BSA control
T2 sequence (P02769 25-607 limits assumed): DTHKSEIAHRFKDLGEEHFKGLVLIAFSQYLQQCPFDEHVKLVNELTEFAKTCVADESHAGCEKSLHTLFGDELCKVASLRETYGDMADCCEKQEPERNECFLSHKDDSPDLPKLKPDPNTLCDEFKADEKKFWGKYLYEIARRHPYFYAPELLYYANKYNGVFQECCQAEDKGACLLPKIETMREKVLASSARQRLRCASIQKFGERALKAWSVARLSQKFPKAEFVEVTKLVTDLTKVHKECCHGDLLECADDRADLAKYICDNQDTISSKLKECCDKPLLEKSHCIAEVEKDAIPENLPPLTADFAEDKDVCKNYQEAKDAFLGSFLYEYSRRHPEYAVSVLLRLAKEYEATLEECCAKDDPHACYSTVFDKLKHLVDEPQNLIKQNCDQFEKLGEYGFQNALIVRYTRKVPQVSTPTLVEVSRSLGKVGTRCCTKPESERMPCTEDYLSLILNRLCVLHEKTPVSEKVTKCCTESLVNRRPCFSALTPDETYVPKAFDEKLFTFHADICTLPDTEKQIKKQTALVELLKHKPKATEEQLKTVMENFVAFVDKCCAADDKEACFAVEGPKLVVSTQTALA
Kind of assay: SPR Biacore 8K, PRSIM immobilised, BSA + 10 nM simeprevir.

The target of assay [4] is T1, HCV NS3/4A PR (S139A):simeprevir complex. In words: SPR Biacore 8K, PRSIM immobilised, protease flowed with 10 nM simeprevir.
Assay [5] deals with T3, HCV NS3/4A PR K136D (S139A background), in the presence of simeprevir (Hepatitis C virus subtype 1a).
T3 chain: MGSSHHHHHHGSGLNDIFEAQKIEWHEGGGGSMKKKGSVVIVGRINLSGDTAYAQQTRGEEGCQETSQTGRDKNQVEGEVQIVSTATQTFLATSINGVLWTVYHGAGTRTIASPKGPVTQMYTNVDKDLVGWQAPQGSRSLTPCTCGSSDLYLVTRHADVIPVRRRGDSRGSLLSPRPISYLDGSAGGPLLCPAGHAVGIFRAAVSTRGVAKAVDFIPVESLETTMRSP

Assay [6] has as its target T4, HCV NS3/4A PR K136N (S139A background), in the presence of simeprevir (Hepatitis C virus subtype 1a).
T4 chain: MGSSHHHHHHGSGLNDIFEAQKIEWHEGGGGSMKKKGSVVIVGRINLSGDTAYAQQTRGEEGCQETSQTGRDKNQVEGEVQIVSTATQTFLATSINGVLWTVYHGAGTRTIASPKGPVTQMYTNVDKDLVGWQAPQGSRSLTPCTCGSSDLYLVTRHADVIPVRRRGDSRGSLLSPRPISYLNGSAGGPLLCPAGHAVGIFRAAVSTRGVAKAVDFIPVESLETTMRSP

Assay [7] addresses T5, HCV NS3/4A PR D168E (S139A background), in the presence of simeprevir (Hepatitis C virus subtype 1a).
T5 chain: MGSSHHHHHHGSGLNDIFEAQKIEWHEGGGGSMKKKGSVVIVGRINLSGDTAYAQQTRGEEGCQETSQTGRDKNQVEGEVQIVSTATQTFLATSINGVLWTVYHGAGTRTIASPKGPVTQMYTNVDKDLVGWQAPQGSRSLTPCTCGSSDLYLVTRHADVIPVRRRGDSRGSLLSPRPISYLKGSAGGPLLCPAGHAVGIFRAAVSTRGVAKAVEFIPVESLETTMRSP

The target of assay [8] is T3, HCV NS3/4A PR K136D (S139A background), ….
In assay [9] the target is T4, HCV NS3/4A PR K136N (S139A background), ….
For assay [10], the target named is T5, HCV NS3/4A PR D168E (S139A background), ….
The target in assay [11] is T3, HCV NS3/4A PR K136D (S139A background), …. Kind of assay: SPR Biacore 8K, with simeprevir. In general terms: Surface plasmon resonance follows binding to a sensor surface in real time, without labels.
In assay [12] the target is T4, HCV NS3/4A PR K136N (S139A background), …. Kind of assay: SPR Biacore 8K, with simeprevir.
The target of assay [13] is T5, HCV NS3/4A PR D168E (S139A background), …. Kind of assay: SPR Biacore 8K, with simeprevir.
The target in assay [14] is T3, HCV NS3/4A PR K136D (S139A background), …. In words: SPR Biacore 8K, simeprevir titrated.

B1: PRSIM_36 (designed binder)
chain: RLDAPSQIEVKDVTDTTALITWSWPRDDDYDIWYFELTYGIKDVPGDRTTIKLLNYASPYSIGNLKPDTEYEVSLISVVPDTYGRGTSNPAKITFKTGL
A word on the Kd: it is a measure of binding affinity in units of concentration. As usually defined, the koff is the rate constant with which the complex falls apart. High values mean a short-lived complex, low ones a long-lived complex. In general, kon refers to the second-order rate constant of association. Regarding B1, the “Binding fold change [(HCV protease + Simeprevir binding)/HCV protease alone]” value (“Binding fold change” for short) in [1] turned out to be 27.9 fold. For the same molecule, in assay [2], the “HTRF max. signal (% delta F)” value was found to be 1440 % delta F. Further, the binding result in assay [3] is on record as “no binding (tested: 20 nM)”. In [4], this molecule gave a Kd of 9.7 nM, a koff of 0.0498 s⁻¹ and a kon of 5.15e+06 M⁻¹ s⁻¹.

B2: PRSIM_04 (scFv)
scFv: QVQLVQSGAEVKKPGSSVKVSCKASGGTFSSYAISWVRQAPGQGLEWMGGIIPIFGTANYAQKFQGRVTITADESTSTAYMELSSLRSEDTAVYYCARGMAHFYQFDLWGQGTLVTVSSGGGGSGGGGSGGGGSAQSVLTQPPSASGTPGQRVTISCSGSSSNIGSNTVNWYQQLPGTAPKLLIYSNNQRPSGVPDRFSGSKSGTSASLAISGLQSEDEADYYCAAGDHDHEHVVFGGGTKLTVL
notes: also called PRSIM_4
On to B2, for which the binding result in assay [3] was “no binding (tested: 20 nM)”.

B3: PRSIM_57 (scFv)
scFv: QVQLVQSGAEVKKPGSSVKVSCKASGGTFSSYAISWVRQAPGQGLEWMGGIIPIFGTANYAQKFQGRVTITADESTSTAYMELSSLRSEDTAVYYCARHTNYITVFDYWGQGTLVTVSSGGGGSGGGGSGGGGSAQSVLTQPPSASGTPGQRVTISCSGSSSNIGSNTVNWYQQLPGTAPKLLIYSNNQRPSGVPDRFSGSKSGTSASLAISGLQSEDEADYYCAAWDHHWEQVVFGGGTKLTVL
As for B3, the binding result in assay [3] is listed as “no binding (tested: 20 nM)”.

B4: PRSIM_23 (designed binder)
chain: RLDAPSQIEVKDVTDTTALITWVDPRYDDIWWFELTYGIKDVPGDRTTIKLYLNDPYYSIGNLKPDTEYEVSLISYTGDSYSRSGSNPAKITFKTGL
As to B4, the “Simeprevir EC50 for induction of heterodimerisation” value in [5] is 132 nM; in [6], 8.06 nM; in assay [7], 3.69 nM. For the same molecule, the figures for the dissociation constant (Kd) in assay [8], in assay [9] and in [10] were 33 nM, 39.5 nM and 14.7 nM, respectively. Besides, the kon in assay [9] worked out at 5.31e+08 M⁻¹ s⁻¹. The “fold decrease of affinity against 'Wt'” value in [11] and in assay [12] was 6 to 7 fold throughout. In addition, the “fold decrease of affinity against 'wt' protease” value in assay [13] is about 3 fold. Further, the “fold increase of the simeprevir EC50 against the wt complex” value in assay [14] is about 30 fold.

B5: PRSIM_72 (scFv)
scFv: QVQLVQSGAEVKKPGSSVKVSCKVSGGSFNNYGVSWVRQAPGQGLEWMGRIIPIRDTANYAQKFQGRVTITADTSTNIAYMELSGLRSDDTAVYYCARVLEDDFWGGYYDFYFYVMDVWGQGTLVTVSSGGGGSGGGGSGGGGSALSSELTQDPVVSVPLGQTARITCQGDSLTTYYATWYQQKPGQAPVLVLYNEHKRPSGISDRFSGSSAGDAASLTITDTQAEDEADYYCSSRDTGGKHVLFGGGTKLTVL
Consider B5, for which the binding result in assay [3] is reported as “no binding (tested: 20 nM)”.

B6: PRSIM_33 (designed binder)
chain: RLDAPSQIEVKDVTDTTALITWYPPGRWYDDIWYFELTYGIKDVPGDRTTIKLARGDDVYSIGNLKPDTEYEVSLISWGPDRGDRAGSNPAKITFKTGL
On to B6, for which the “Binding fold change” value in [1] is 29.9 fold. Also, the “HTRF max. signal (% delta F)” value in assay [2] was 1700 % delta F. In addition, the binding result in [3] is reported as “no binding (tested: 20 nM)”. In assay [4], the Kd was found to be 8.3 nM, the koff came to 0.0303 s⁻¹ and the kon stood at 3.65e+06 M⁻¹ s⁻¹.

B7: PRSIM_67 (scFv)
scFv: EVQLVQSGAEVKKPGAAVRISCKTSGYVFTSYYVHWVRQAPGQGLEWMGVINPSGGNTNYAQKFQDRVTMTRDTSTTTVYMELSSLMFDDTAVYYCAKRDYGGPLANWGRGTLVTVSSGGGGSGGGGSGGGGSALSYELTQPPSVSEAPRQRVTISCSGSSSNIGNNAVNWYQQLPGKAPKLLIFYDDLLPSGVSDRFSGSKSGTSASLAISGLQSEDEADYYCAAWDDSLNGLVFGTGTKLTVL
With B7, the binding result in assay [3] is given as “no binding (tested: 20 nM)”.

B8: PRSIM_47 (designed binder)
chain: RLDAPSQIEVKDVTDTTALITWSRPGVSIWYFELTYGIKDVPGDRTTIKLDYRSYYYSIGNLKPDTEYEVSLISGSYGLVGVRASNPAKITFKTGL
As for B8, the “Binding fold change” value in assay [1] amounted to 25.3 fold. For the same molecule, in assay [2], the “HTRF max. signal (% delta F)” value was 1370 % delta F. The binding result in assay [3] is reported as “no binding (tested: 20 nM)”. The molecule also registered a dissociation constant Kd in [4] of 3.9 nM.

B9: PRSIM_75 (scFv)
scFv: EVQLVQSGAEVKKPGSSVKVSCKASGGSFNSYTLDWVRQAPGQGLEWMGGIIPVFGSPNYGQKFQGRVTITADESTSTAYMELSSLKSDDTAVYYCARGLVYQPLDSWGRGTLVTVSSGGGGSGGGGSGGGGSAQAVLTQPSSASGTPGQRVTISCSGSSSNIGSYTVNWYQQFPGTAPKLLIYSNTQRPSGVPDRFSGSKSGTSASLAISGLQSEDEADYYCAAWDDSLNGWVFGGGTKVTVL
With B9, the binding result in [3] is “no binding (tested: 20 nM)”.

B10: PRSIM_32 (designed binder)
chain: RLDAPSQIEVKDVTDTTALITWWSPRYYYASISGFELTYGIKDVPGDRTTIKLDYASNDYSIGNLKPDTEYEVSLISWNYGDWRYSSSNPAKITFKTGL
Regarding B10, the “Binding fold change” value in assay [1] is 22.4 fold. Moreover, the “HTRF max. signal (% delta F)” value in [2] was found to be 1960 % delta F. The binding result in assay [3] is on record as “no binding (tested: 20 nM)”. Also, binding in assay [4] was put at a Kd of 16 nM.
